Reference: patent US20140294819A1 (NVIP, published 2014)
Changes are numbered by the printed parent chain.

What was measured:
[1] = target: canine CD20 cyclic (oxidised, disulphide-bonded) peptide SEQ ID NO:2 (canine); test: ELISA, biotinylated oxidised peptide on streptavidin plate; conditions: scale: fold of the binding to human CD20 peptide
[2] = target: T1, canine CD20 cyclic (oxidised, disulphide-bonded) peptide SEQ ID NO:2 (canine, disulphide bond between the two cysteine residues (corresponding to positions 167 and 183); N-terminal biotin in the streptavidin-plate assays); test: ELISA on cyclised CD20 peptide
T1 construct: Chemically synthesised and oxidised; also called C20; caCD20 peptide
T1 peptide: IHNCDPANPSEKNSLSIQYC

[3] = target: T2, human CD20 cyclic (oxidised) peptide SEQ ID NO:3 (human, disulphide bond between the two cysteine residues; biotinylated); test: ELISA on cyclised CD20 peptide
T2 construct: also called H20; human CD20 cyclic peptide
T2 peptide: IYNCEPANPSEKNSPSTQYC

[4] = target: T3, murine CD20 cyclic (oxidised) peptide SEQ ID NO:6 (murine, disulphide bond between the two cysteine residues; biotinylated); test: ELISA on cyclised CD20 peptide
T3 construct: also called M20; mouse CD20 peptide
T3 peptide: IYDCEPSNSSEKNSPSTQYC

[5] = target: T4, feline CD20 cyclised peptide SEQ ID NO:4 (feline, cyclised by a disulphide bond between the two cysteine residues); test: ELISA on cyclised CD20 peptide
T4 construct: also called feline CD20 peptide
T4 peptide: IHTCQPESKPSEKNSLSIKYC

[6] = target: T1, canine CD20 cyclic (oxidised, …); test: ELISA, CHO supernatant on canine CD20 cyclic peptide, dose response
Source text: This confirms the data with Bly-1 above (and by extension its humanised variant GA101) that this is a further example of a Type II anti-human CD20 monoclonal antibody that also binds to a common epitope on canine CD20, thus validating the use of the structurally constrained shared epitope on canine CD20 as a novel target for monoclonal antibodies.

[7] = target: T1, canine CD20 cyclic (oxidised, …); test: ELISA, hybridoma antibody on cyclic CD20 peptide
Source text: (§1) Using a combination of cyclic human (SEQ ID NO:3) and canine (SEQ ID NO:2) CD20 peptides, monoclonal antibodies that would bind both human and canine peptides were screened for using conventional hybridoma screening of mice previously immunised with the cyclic canine CD20 peptide of FIG. 1, coupled to diphtheria toxoid at the amino terminus as a source of T-cell help. Two antibody hybridomas were selected, RA2 and RF2 and tested for binding to these as well as to murine (SEQ ID NO:6) and feline (SEQ ID NO:4) CD20 peptides. RA2 and RF2 bound strongly to canine CD20 and RF2 bound strongly to human CD20 peptide whereas RA2 binds more weakly. Unexpectedly RA2 and RF2 bound strongly to feline and also murine CD20 peptides.

[8] = target: T2, human CD20 cyclic (oxidised) peptide …; test: ELISA, hybridoma antibody on cyclic CD20 peptide
Source text: as §1

[9] = target: T3, murine CD20 cyclic (oxidised) peptide …; test: ELISA, hybridoma antibody on cyclic CD20 peptide
Source text: as §1

[10] = target: T4, feline CD20 cyclised peptide SEQ ID NO:4; test: ELISA, hybridoma antibody on cyclic CD20 peptide
Source text: as §1

[11] = target: T1, canine CD20 cyclic (oxidised, …); test: ELISA, purified recombinant antibody on cyclic CD20 peptide
Source text: (§2) The RA2 and RF2 variable heavy and light chain sequences (SEQ ID NO:23-26) were rebuilt as IgG2a/kappa antibodies by oligonucleotide-based gene synthesis, cloned into pcDNA3.3 vectors and co-expressed in appropriate pairs in CHO cells. The supernatant expressed antibodies were purified by Protein A chromatography and tested for binding by CD20 peptide ELISA (FIG. 11). Both purified recombinant forms of mouse RA2 and RF2 bound strongly to cyclic canine and feline CD20 peptides, and also to mouse and human CD20 peptides (the binding of RA2 to human CD20 peptide was more pronounced than with the corresponding hybridoma supernatant in FIG. 9).

[12] = target: T2, human CD20 cyclic (oxidised) peptide …; test: as above
Source text: as §2

[13] = target: T3, murine CD20 cyclic (oxidised) peptide …; test: as above
Source text: as §2

[14] = target: T4, feline CD20 cyclised peptide SEQ ID NO:4; test: as above
Source text: as §2

## B1-H299 (Beckmann Coulter) murine Type II anti-human CD20 monoclonal antibody
[1]
  binding relative to the binding to human CD20 peptide: 0.167

B1: caninised RF2, HCC isotype (antibody)
heavy: EVQLVQSGGGLVKPTESLTISCVISGFSLTSYGVHWVRQSPGKGLEWLGVIWSGGSIDYNAAFISRLSISKDNSKSTVFIRMNSLRADDTAIYYCARGPRKFYYFGMDYWGQGTSVTVSSASTTAPSVFPLAPSCGSQSGSTVALACLVSGYIPEPVTVSWNSVSLTSGVHTFPSVLQSSGLYSLSSMVTVPSSRWPSETFTCNVAHPATNTKVDKPVAKECECKCNCNNCPCPGCGLLGGPSVFIFPPKPKDILVTARTPTVTCVVVDLDPENPEVQISWFVDSKQVQTANTQPREEQSNGTYRVVSVLPIGHQDWLSGKQFKCKVNNKALPSPIEEIISKTPGQAHQPNVYVLPPSRDEMSKNTVTLTCLVKDFFPPEIDVEWQSNGQQEPESKYRMTPPQLDEDGSYFLYSKLSVDKSRWQRGDTFICAVMHEALHNHYTQISLSHSPGK
light: DIVMTQTPLSLSVSQEEEASISCRSSQNIVHSNGNTYVEWYLQKPGQSPKLLIYKVSNRFSGVPDRFSGSGSGTDFTLKISRVEAEDAGVYYCFQGSHVPLTFGAGTKLELKRNDAQPAVYLFQPSPDQLHTGSASVVCLLNSFYPKDINVKWKVDGVIQDTGIQESVTEQDKDSTYSLSSTLTMSSTEYLSHELYSCEITHKSLPSTLIKSFQRSECQRVD
notes: also called caRF2-C
[2]
  binding result: binds
[3]
  binding result: binds
[4]
  binding result: binds
[5]
  binding result: binds

B2: recombinant caninised GA101 (full length canine antibody) (antibody, V domains shown)
VH: EVQLVQSGGEVVKPGGSLKVSCVASGYAFSYSWINWVRQAPGQGMEWVGRIFPGDGDTDYNGKFKGRVTITRDNSKSTAYLELSSLRSEDTAVYYCARNVFDGYWLVYWGQGTLVTVSS
VL: DIVMTQTPLSLSVTPEEPASISCRSSKSLLHSNGITYLYWYLQKPGQSPQLLIYQMSNLVSGVPDRFSGSGSGTDFTLKISRVEAEDVGVYYCAQNLELPYTFGAGTKVEIKR
notes: Tested as CHO cell supernatant
[6]
  binding result: binds

B3: RA2 murine monoclonal antibody (hybridoma) (antibody, V domains shown)
VH: QVQLKQSGPGLVPPSQSLSITCTVSGFSLTNYGVHWVRQSPGKGLEWLGVIWSGGTTDYNAAFISRLSISKDNSKSQVFFKMNSLQADDTAIYYCARGPRKFYYYGMDYWGQGTSVTVSS
VL: DVLMTQTPLSLPVSLGDQASISCRSSQSIVHSNGNTYLEWYLQKPGQSPKLLIYKVSNRFSGVPDRFSGSGSGTDFTLKISRVEAGDLGVYYCFQGLHVPLTFGAGTRLELK
notes: Hybridoma supernatant; also called muRA2
[7]
  binding result: binds
[8]
  binding result: binds
[9]
  binding result: binds
[10]
  binding result: binds

B4: RF2 murine monoclonal antibody (hybridoma) (antibody, V domains shown)
VH: B3 VH with V24I, N31S, K43W, T56S, T57I, F80I, Y105F
VL: B3 VL with L3V, S28N, L38V, G86E, L97S, R108K
notes: Hybridoma supernatant; also called muRF2
[7]
  binding result: binds
[8]
  binding result: binds
[9]
  binding result: binds
[10]
  binding result: binds

B5: recombinant mouse RA2 (IgG2a/kappa) (antibody)
heavy: QVQLKQSGPGLVPPSQSLSITCTVSGFSLTNYGVHWVRQSPGKGLEWLGVIWSGGTTDYNAAFISRLSISKDNSKSQVFFKMNSLQADDTAIYYCARGPRKFYYYGMDYWGQGTSVTVSSAKTTAPSVYPLAPVCGDTTGSSVTLGCLVKGYFPEPVTLTWNSGSLSSGVHTFPAVLQSDLYTLSSSVTVTSSTWPSQSITCNVAHPASSTKVDKKIEPRGPTIKPCPPCKCPAPNLLGGPSVFIFPPKIKDVLMISLSPIVTCVVVDVSEDDPDVQISWFVNNVEVHTAQTQTHREDYNSTLRVVSALPIQHQDWMSGKEFKCKVNNKDLPAPIERTISKPKGSVRAPQVYVLPPPEEEMTKKQVTLTCMVTDFMPEDIYVEWTNNGKTELNYKNTEPVLDSDGSYFMYSKLRVEKKNWVERNSYSCSVVHEGLHNHHTTKSFSRTPGK
light: DVLMTQTPLSLPVSLGDQASISCRSSQSIVHSNGNTYLEWYLQKPGQSPKLLIYKVSNRFSGVPDRFSGSGSGTDFTLKISRVEAGDLGVYYCFQGLHVPLTFGAGTRLELKRADAAPTVSIFPPSSEQLTSGGASVVCFLNNFYPKDINVKWKIDGSERQNGVLNSWTDQDSKDSTYSMSSTLTLTKDEYERHNSYTCEATHKTSTSPIVKSFNRNEC
notes: also called muRA2
[11]
  binding result: binds
[12]
  binding result: binds
[13]
  binding result: binds
[14]
  binding result: binds

B6: recombinant mouse RF2 (IgG2a/kappa) (antibody)
heavy: B5 heavy with V24I, N31S, K43W, T56S, T57I, F80I, Y105F
light: B5 light with L3V, S28N, L38V, G86E, L97S, R108K
notes: also called muRF2; mouse IgG2a variant of RF2
[11]
  binding result: binds
[12]
  binding result: binds
[13]
  binding result: binds
[14]
  binding result: binds
